The values that follow come from patent US20160368985A1 (published 2016).

The term Kd denotes the equilibrium constant for the complex coming apart.

The assay deals with 7D8.RbIgG. Put plainly: SPR (Biacore). In general terms: In SPR one partner is held on a chip, and binding of the other changes the refractive index at the surface.

B1: CyFcRH5 (receptor)
chain: QFVRTYKSHFLQPPWTTVFRGERVNLTCKGFGFYSSQKTKWYYRHLGKEISRETQKNTLEVQESGEYRCQAQGSPLSSPVSLDFSSASLILQAPLSVFEGDSVVLRCRAKAEVTLKTTIYKNENVLAFLNKSTDFHISHASLKDNGAYRCTGYKETCCLVSSNTVKIQVQESFTRPVLRVSSFQPISGSPVTLTCETQLSLERSDVPLQFCFFRNDQMLGSGCSLSPKFRITAMWSKDSGSYWCKAATMCYDTTSNSLRSWIQVLIPASHPVLTLSPEKALNFEGTKVKLHCETQEDSLRTLYKFYHDGVPLRYKSVRCEKGASISFSLTTEHSGNYYCTADNGHGAKPSEAVSLSVTVPVSRPVLTLSSAEDLISEGAKLTLHCEAQRGSLPIVYQFHHENASLGNRSAHSAGGVAISFSLTADHSGNYYCTANNGFGPQRSEAVSLSITVPVSRPVLTLSSAEALTFEGATVTLYCEVQRGSPRILYQFYHEDVPLGSNSTPSVGKVSFSFSLTAAHSGNYYCTADNGFGPQRSEAVSLFVTVPVSRPILTLRVPRAQAVVGDLLELRCEALRGSPPIMYWFYHEDVTLGSSSVPSGGEASFNLSLTAEHSGNYSCEANNGLVAQHSDTISLSVIVPVSRPILTFRAPRAQAVVGDLLELHCEALRGSSPILYWFYHEDVTLGKISAPSGGGAYFNLSLTTEHSGIYSCEADNGLEAQRSEMVTLKVAVPVSRPVLTLRAPRAQVAVGDLLELHCEALRGSPLILYQFYHEDVTLGNSSALSGGAFFNLSLTAEHGNYSCEADNGLGAQRSETVTLYLTGLTENRSGPVATG
In the case of B1, the Kd was determined as 1.89 nM.
